According to paper PMC7692546:
pKi: −log10 of the molar value.

Legend:
[1] = molecular target: F. hepatica cathepsin L3 (Fasciola hepatica)
[2] = molecular target: F. hepatica cathepsin L3 (Fasciola hepatica); assay: enzyme inhibition (fluorogenic peptide substrate); KT inhibitor (2 μM) incubated with each protease in 100 μl reaction buffer for 15 min at 37 °C, then fluorogenic substrate; inhibition constants by the Morrison equation for tight-binding inhibition
Bovine trypsin (bovine) [3] = molecular target: Bovine trypsin (bovine)
Bovine trypsin (bovine) [4] = assay: enzyme inhibition (fluorogenic peptide substrate); KT inhibitor (2 μM) incubated with each protease in 100 μl reaction buffer for 15 min at 37 °C, then fluorogenic substrate; inhibition constants by the Morrison equation for tight-binding inhibition
[5] = molecular target: F. hepatica cathepsin L1 (Fasciola hepatica); assay: as above
[6] = molecular target: F. hepatica cathepsin L2 (Fasciola hepatica); assay: as above
[7] = molecular target: Human cathepsin K (human) (UniProt P43235); assay: as above
[8] = molecular target: Human cathepsin L (human); assay: as above

Chain of Human cathepsin K (human) (P43235 115-329): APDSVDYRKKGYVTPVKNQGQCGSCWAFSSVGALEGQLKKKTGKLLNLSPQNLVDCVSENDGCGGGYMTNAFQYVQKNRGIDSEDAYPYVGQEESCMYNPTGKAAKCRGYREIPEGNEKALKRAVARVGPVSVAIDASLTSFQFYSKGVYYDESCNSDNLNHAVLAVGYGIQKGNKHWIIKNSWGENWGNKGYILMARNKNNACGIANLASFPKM

| Substance | reduction of FhCL3 activity at 2 μM inhibitor (fluorogenic substrate) [1] [%] | pKi [2] | reduction in trypsin activity at 2 μM inhibitor (fluorogenic substrate) (Bovine trypsin (bovine) [3]) [%] | pKi (Bovine trypsin (bovine) [4]) | pKi [5] | pKi [6] | pKi [7] | pKi [8] |
| --- | --- | --- | --- | --- | --- | --- | --- | --- |
| Recombinant FhKT1.1 (Fasciola hepatica Kunitz-type inhibitor 1.1) (natural protein) | 93.1 | 8.74 |  |  |  |  |  |  |
| Recombinant FhKT1.3 (Fasciola hepatica Kunitz-type inhibitor 1.3) (natural protein) |  | 8.49 | 99.2 | 8.74 | 9.22 | 7.97 | 8.26 | 8.59 |
| rFhKT1.1Arg^19/Ala^19 (natural protein) |  | 7.48 |  |  | 8.38 | 7.46 | 7.73 | 9.52 |
| rFhKT1.1Leu^15/Arg^15 (natural protein) |  | 8.44 |  |  |  |  |  |  |
